Test results: the supplement of paper PMC6757056
± gives the standard deviation of the averaged measurements.

B1: library; a variant is named by its letters at N, in order (parent)
chain: GCUGUCACCGGUGUAUUACCCUAGUGGUCGACCGGUCUGAUGAGUCUNNNNNNAGACGAAACAGC

Key:
[1] = variants of: B1; assay: FACS-Seq fitted mean relative fluorescence mCherry/BFP without ligand (log10 relative fluorescence); ligand: hypoxanthine (xanthine aptamer); higher = higher reporter protein expression; conditions: HEK293T, ligand present: no
How it was run: (§1)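 HEK293T libraries were made by lentiviral transduction with a ribozyme-switch mCherry reporter and an EF1α-BFP marker, enriched, and incubated with or without ligand for 48 h. Cells were sorted into 6 mCherry/BFP bins, and each bin's genomic DNA was PCR-amplified, barcoded and run on MiSeq. Fluorescence was derived by normal fitting of the bin counts. The fitted log10(mCherry/BFP) mean was scaled to five spiked-in control ribozymes.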

[2] = variants of: B1; assay: normalized RNA/DNA level with ligand (relative to sTRSVctl = 100) (log10 (% of sTRSVctl)); ligand: hypoxanthine (xanthine aptamer); higher = less ribozyme self-cleavage, higher mRNA level; conditions: ligand concentration (+) RNA-Seq: 5 mM, HEK293T, reporter: mCherry (pCS4076), ligand present: yes
Procedure: (§2)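 Hammerhead (sTRSV) ribozyme switch libraries with a ligand aptamer grafted on stem I and a randomized N4-6 loop II, cloned into the 3' UTR of mCherry and transiently transfected into HEK293T cells; RNA-Seq 72 h post transfection with ligand added 1 h before transfection; RNA read count / plasmid DNA read count normalized to the non-cleaving sTRSVctl (x100), log10; sequences with >100 DNA reads. FACS-Seq: lentiviral library sorted into 6 bins after 48 h ligand, log-normal fit mean of mCherry/BFP scaled to controls. Printed sequences are partial switch sequences.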

[3] = variants of: B1; assay: normalized RNA/DNA level without ligand (relative to sTRSVctl = 100) (log10 (% of sTRSVctl)); ligand: hypoxanthine (xanthine aptamer); higher = less ribozyme self-cleavage, higher mRNA level; conditions: HEK293T, reporter: mCherry (pCS4076), ligand present: no
Procedure: as §2

[4] = variants of: B1; assay: FACS-Seq fitted mean relative fluorescence mCherry/BFP with ligand (log10 relative fluorescence); ligand: hypoxanthine (xanthine aptamer); ligand concentration (+) FACS-Seq: 5 mM; higher = higher reporter protein expression; conditions: HEK293T, ligand present: yes
How it was run: as §1

| Variant | FACS-Seq fitted mean (log10) [1] | normalized RNA/DNA level with ligand (log10) [2] | normalized RNA/DNA level without ligand (log10) [3] | FACS-Seq fitted mean (log10) [4] |
| --- | --- | --- | --- | --- |
| AAUUUG | 0.3 ± 0.021 | 1.873 ± 0.012 | 1.57 ± 0.046 | 0.468 ± 0.064 |
| CCAGCC | -0.754 ± 0.048 | 2 ± 0.026 | 1.916 ± 0.013 | -0.409 ± 0.044 |
| UCAAUC | 0.3976 ± 0.0018 | 2.0151 ± 0.001 | 2 ± 0.024 | 0.543 ± 0.12 |
| GAUUUA | 0.541 ± 0.043 | 1.89 ± 0.036 | 1.87 ± 0.051 | 0.437 ± 0.1 |
| GAUUUG | 0.162 ± 0.045 | 1.87 ± 0.046 | 1.4542 ± 0.00087 | 0.521 ± 0.0058 |
| GAUGAA | 0.529 ± 0.025 | 1.886 ± 0.0083 | 1.711 ± 0.013 | 0.52 ± 0.051 |
| GAUGAC | 0.654 ± 0.023 | 1.92 ± 0.02 | 1.72 ± 0.023 | 0.526 ± 0.07 |
| GAUGAU | 0.537 ± 0.094 | 1.91 ± 0.05 | 1.767 ± 0.015 | 0.495 ± 0.025 |
| GAUGAG | 0.0708 ± 0.0074 | 1.74 ± 0.028 | 1.3 ± 0.067 | 0.572 ± 0.047 |
| ACACUG | 0.4461 ± 0.0036 | 1.9 ± 0.021 | 1.42 ± 0.097 | 0.795 ± 0.052 |
| GCAACA | -0.108 ± 0.043 | 1.96 ± 0.027 | 1.85 ± 0.059 | -0.0215 ± 0.13 |
| UCAGCG | 0.383 ± 0.009 | 1.94 ± 0.067 | 1.8203 ± 0.0012 | 0.656 ± 0.083 |
| ACACCC | 0.129 ± 0.016 | 1.97 ± 0.1 | 1.87 ± 0.12 | 0.45298 ± 0.00015 |
| ACAGAG | 0.0524 ± 0.0076 | 1.79 ± 0.044 | 1.34 ± 0.041 | 0.353 ± 0.058 |
| ACAGAU | 0.263 ± 0.00091 | 1.89 ± 0.033 | 1.64 ± 0.049 | 0.461 ± 0.069 |
| GAUGCU | -0.0807 ± 0.06 | 1.93 ± 0.063 | 1.867 ± 0.012 | 0.0649 ± 0.0092 |
| GAUGCG | 0.0728 ± 0.0046 | 1.87 ± 0.038 | 1.498 ± 0.0066 | 0.5658 ± 0.0024 |
| GAUGCC | 0.537 ± 0.022 | 1.96 ± 0.024 | 1.879 ± 0.018 | 0.5688 ± 0.0033 |
| AAUUCA | 0.486 ± 0.061 | 1.93 ± 0.049 | 1.86 ± 0.025 | 0.567 ± 0.082 |
| AAUUCG | 0.321 ± 0.022 | 1.9 ± 0.041 | 1.52 ± 0.043 | 0.729 ± 0.034 |
| ACAAAG | 0.343 ± 0.016 | 1.901 ± 0.0069 | 1.54 ± 0.028 | 0.696 ± 0.034 |
| ACAAAC | 0.5372 ± 0.0045 | 1.93 ± 0.062 | 1.826 ± 0.017 | 0.517 ± 0.046 |
| ACAAAU | 0.311 ± 0.091 | 1.89 ± 0.029 | 1.65 ± 0.044 | 0.331 ± 0.014 |
| ACAAAA | 0.4 ± 0.17 | 1.904 ± 0.0062 | 1.81 ± 0.021 | 0.1925 ± 0.0013 |

| Variant | FACS-Seq fitted mean (log10) [1] | normalized RNA/DNA level with ligand (log10) [2] | normalized RNA/DNA level without ligand (log10) [3] | FACS-Seq fitted mean (log10) [4] |
| --- | --- | --- | --- | --- |
| GCAAGA | 0.209 ± 0.025 | 1.94 ± 0.045 | 1.708 ± 0.0095 | 0.332 ± 0.0071 |
| UCACAU | -0.364 ± 0.044 | 1.93 ± 0.051 | 1.8 ± 0.021 | 0.26 ± 0.027 |
| CAUGAG | -0.0522 ± 0.019 | 1.924 ± 0.011 | 1.562 ± 0.0089 | 0.35 ± 0.039 |
| CAUGAC | -0.299 ± 0.099 | 1.937 ± 0.006 | 1.793 ± 0.017 | 0.254 ± 0.046 |
| CAUGAA | 0.0197 ± 0.067 | 1.87 ± 0.026 | 1.68 ± 0.022 | 0.341 ± 0.056 |
| CAUGAU | 0.296 ± 0.088 | 1.905 ± 0.0035 | 1.73 ± 0.032 | 0.333 ± 0.077 |
| CAUUAA | 0.176 ± 0.0055 | 1.87 ± 0.071 | 1.712 ± 0.015 | 0.306 ± 0.052 |
| CAUUAU | 0.7325 ± 0.0015 | 1.9 ± 0.08 | 1.8 ± 0.021 | 0.778 ± 0.098 |
| ACAGCG | 0.12 ± 0.062 | 1.92 ± 0.028 | 1.67 ± 0.0018 | 0.456 ± 0.065 |
| GCAGCA | 0.363 ± 0.034 | 1.983 ± 0.0069 | 1.827 ± 0.016 | 0.663 ± 0.015 |
| GCAGCC | 0.465 ± 0.1 | 1.99 ± 0.044 | 1.78 ± 0.023 | 0.532 ± 0.069 |
| UCACUG | 0.184 ± 0.08 | 1.89 ± 0.041 | 1.55 ± 0.012 | 0.463 ± 0.081 |
| UCAGUU | -0.0872 ± 0.018 | 1.96 ± 0.046 | 1.87 ± 0.04 | 0.0688 ± 0.016 |
| UCAGUA | 0.09 ± 0.0096 | 1.92 ± 0.069 | 1.797 ± 0.013 | 0.386 ± 0.036 |
| UAUUCA | 0.158 ± 0.15 | 1.942 ± 0.0084 | 1.925 ± 0.0052 | 0.144 ± 0.082 |
| UAUUAA | 0.486 ± 0.054 | 1.89 ± 0.0083 | 1.86 ± 0.022 | 0.724 ± 0.088 |
| UAUUAU | 0.643 ± 0.015 | 1.93 ± 0.023 | 1.8 ± 0.028 | 0.594 ± 0.024 |
| UAUUAC | 0.513 ± 0.025 | 1.9 ± 0.054 | 1.823 ± 0.018 | 0.512 ± 0.011 |
| AAUCUG | 0.297 ± 0.034 | 1.85 ± 0.022 | 1.43 ± 0.1 | 0.656 ± 0.024 |
| UCAGGA | 0.301 ± 0.039 | 1.89 ± 0.02 | 1.44 ± 0.047 | 0.6634 ± 0.0026 |
| UCAGGG | 0.486 ± 0.02 | 1.951 ± 0.015 | 1.69 ± 0.065 | 0.704 ± 0.067 |
| AAUGGA | 0.265 ± 0.081 | 1.88 ± 0.022 | 1.61 ± 0.038 | 0.192 ± 0.36 |
| AAUGGG | 0.049 ± 0.035 | 1.77 ± 0.052 | 1.25 ± 0.063 | 0.547 ± 0.047 |
| AAUGAG | 0.0392 ± 0.012 | 1.81 ± 0.039 | 1.3 ± 0.022 | 0.472 ± 0.044 |

| Variant | FACS-Seq fitted mean (log10) [1] | normalized RNA/DNA level with ligand (log10) [2] | normalized RNA/DNA level without ligand (log10) [3] | FACS-Seq fitted mean (log10) [4] |
| --- | --- | --- | --- | --- |
| AAUGAU | 0.38227 ± 0.00021 | 1.88 ± 0.041 | 1.683 ± 0.0061 | 0.571 ± 0.06 |
| AAUGAC | 0.585 ± 0.07 | 1.894 ± 0.0079 | 1.83 ± 0.049 | 0.5447 ± 0.0044 |
| GCAGAG | 0.09517 ± 0.00035 | 1.78 ± 0.031 | 1.35 ± 0.051 | 0.558 ± 0.037 |
| GCAGAU | -0.106 ± 0.1 | 1.92 ± 0.077 | 1.76 ± 0.031 | -0.1997 ± 0.0017 |
| GCAGAA | 0.408 ± 0.02 | 1.88 ± 0.057 | 1.7 ± 0.031 | 0.472 ± 0.013 |
| CAUUGA | 0.221 ± 0.12 | 1.912 ± 0.0057 | 1.82 ± 0.053 | 0.32 ± 0.0063 |
| GCAAUG | 0.028 ± 0.018 | 1.87 ± 0.05 | 1.436 ± 0.0057 | 0.443 ± 0.04 |
| GCAAUA | 0.126 ± 0.036 | 1.941 ± 0.016 | 1.87 ± 0.026 | 0.466 ± 0.071 |
| GCAAUC | 0.498 ± 0.03 | 1.98 ± 0.058 | 1.77 ± 0.0096 | 0.531 ± 0.046 |
| CCAACU | 0.611 ± 0.037 | 2.02 ± 0.025 | 1.945 ± 0.012 | 0.58 ± 0.015 |
| CCAACC | 0.551 ± 0.044 | 1.94 ± 0.021 | 1.95 ± 0.054 | 0.584 ± 0.055 |
| UAUGUC | -0.423 ± 0.035 | 1.944 ± 0.011 | 1.95 ± 0.053 | -0.356 ± 0.048 |
| UAUGUG | -0.0408 ± 0.016 | 1.91 ± 0.022 | 1.7 ± 0.034 | 0.0665 ± 0.031 |
| CCAGAA | 0.561 ± 0.0022 | 1.94 ± 0.053 | 1.79 ± 0.053 | 0.631 ± 0.011 |
| CCAGAG | 0.628 ± 0.021 | 1.95 ± 0.038 | 1.51 ± 0.066 | 0.741 ± 0.022 |
| ACACGG | -0.144 ± 0.07 | 1.79 ± 0.053 | 1.32 ± 0.041 | 0.465 ± 0.024 |
| ACACGU | 0.624 ± 0.02 | 1.95 ± 0.079 | 1.823 ± 0.0069 | 0.572 ± 0.096 |
| ACACGA | -0.273 ± 0.0021 | 1.91 ± 0.062 | 1.73 ± 0.058 | 0.145 ± 0.0024 |
| ACAGGA | 0.278 ± 0.028 | 1.905 ± 0.013 | 1.66 ± 0.043 | 0.473 ± 0.069 |
| ACAGGU | 0.51 ± 0.04 | 1.858 ± 0.0068 | 1.49 ± 0.082 | 0.744 ± 0.054 |
| ACAGGG | 0.428 ± 0.034 | 1.83 ± 0.038 | 1.44 ± 0.032 | 0.788 ± 0.041 |
| GCAGUG | 0.155 ± 0.01 | 1.87 ± 0.075 | 1.4 ± 0.064 | 0.533 ± 0.039 |
| GCAGUC | 0.791 ± 0.051 | 1.94 ± 0.047 | 1.71 ± 0.047 | 0.764 ± 0.064 |
